Experimental data from PMC10175261.

Legend:
[1] = target: PriA;PriB N-term Arg44Ala LD (Escherichia coli;Escherichia coli, UniProt P17888;P07013 1-732;1-104+1-104, |R44A;internal_change); conditions: protein: recombinant;recombinant; tags: N-terminal His;; copies: 1;1; label: 5'-32P on 3L-98 (strand 2); fork 1:2 1:3; ssDNA lagging arm (strand 2)
[2] = target: PriA;PriB C-term Arg44Ala LD (Escherichia coli;Escherichia coli, UniProt P17888;P07013 1-732;1-104+1-104, |R44A;internal_change); conditions: protein: recombinant;recombinant; tags: N-terminal His;; copies: 1;1; label: 5'-32P on 3L-98 (strand 2); fork 1:2 1:3; ssDNA lagging arm (strand 2)
PriA;PriB = PriA;PriB (Escherichia coli;Escherichia coli, UniProt P17888;P07013 1-732;1-104, |); conditions: protein: recombinant;recombinant; tags: N-terminal His;none; copies: 1;2; label: 5'-32P on 3L-98 (strand 2); fork 1:2 1:3; ssDNA lagging arm (strand 2)
PriA CRR triple variant = PriA CRR triple variant (Escherichia coli, UniProt P17888 1-732, D438A;T482A;H483A); conditions: protein: recombinant; tags: N-terminal His; label: 5'-32P on 3L-98 (strand 2); fork 1:2 1:3; ssDNA lagging arm (strand 2)
PriA Asp438Ala = PriA Asp438Ala (Escherichia coli, UniProt P17888 1-732, D438A); conditions: protein: recombinant; tags: N-terminal His; label: 5'-32P on 3L-98 (strand 2); fork 1:2 1:3; ssDNA lagging arm (strand 2)
PriA His483Ala = PriA His483Ala (Escherichia coli, UniProt P17888 1-732, H483A); conditions: protein: recombinant; tags: N-terminal His; label: 5'-32P on 3L-98 (strand 2); fork 1:2 1:3; ssDNA lagging arm (strand 2)
PriA Thr482Ala = PriA Thr482Ala (Escherichia coli, UniProt P17888 1-732, T482A); conditions: protein: recombinant; tags: N-terminal His; label: 5'-32P on 3L-98 (strand 2); fork 1:2 1:3; ssDNA lagging arm (strand 2)

B1: Fork 1 (structured_DNA)
DNA 1: GCAAGCCTTCTACAGGTCGACCGTCCATGGCGACTCGAGACCGCAATACGGATAAGGGCTGAGCACGCCGACGAACATTCACCACGCCAGACCACGTA
DNA 2: GACTATCTACGTCCGAGGCTCGCGCCGCAGACTCATTTAGCCCTTATCCGTATTGCGGTCTCGAGTCGCCATGGACGGTCGACCTGTAGAAGGCTTGC
DNA 3: TACGTGGTCTGGCGTGGTGAATGTTCGTCGGCGTGCTC
B1: binds [1]; binds [2]; binds (PriA;PriB). The binding signal (PriA CRR triple variant) was 95.8 ± 3.1 % fork shifted, the binding signal (PriA Asp438Ala) was 95 ± 1.9 % fork shifted and the binding signal (PriA His483Ala) was 92.2 ± 3.7 % fork shifted. It also gave a binding signal (PriA Thr482Ala) of 91.3 ± 6.5 % fork shifted.
